Test results as given in patent US20190071480A1 (Biogen, published 2019).
Each block holds one binder with its values, some of them ahead of it. Bridges are numbered along the chain shown (N, C = ends).

Experiments:
[1] = molecular target: T1, extracellular domain of activin receptor type IIB (ActRIIBecd), biotinylated (Homo sapiens (Human), UniProt Q13705 27-117, amino-biotinylated with amine-PEG3-Biotin); experiment: BIAcore SPR, biotinylated ActRIIBecd on chip; SD ±24.42 nM
T1 construct: immobilised on a streptavidin-coated sensor chip; also called biotinylated ActRIIBecd; extracellular domain of ActRIIB
T1 sequence: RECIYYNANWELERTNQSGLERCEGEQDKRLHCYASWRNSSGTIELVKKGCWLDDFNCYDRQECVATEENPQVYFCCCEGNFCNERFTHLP
Method: (§1) Biosensor experiments. In one embodiment, experiments were performed on a BIAcore™ T100/T200 instrument (Pharmacia Biosensor AB) in the multichannel mode (serial flow path involving flow cells 1+2+3+4). Flow rate was 10 μl/min; temperature was 25° C.; and data were recorded at 2.5 points/s. All four segments of a sensor chip CMS were coated with streptavidin (Sigma) to a density of 2000 pg/mm² (2000 resonance units) by the aminocoupling procedure. ActRIIBecd (10 mg) and amine-PEG3-Biotin (10 mg, Pierce, Rockford, Ill.) were dissolved in 200 μl H₂O and 10 mg NaCNBH₃ was added to prepare biotinylated ActRIIBecd. The reaction mixture was heated at 70° C. for 24 h, after that a further 10 mg NaCNBH₃ was added and the reaction was heated at 70° C. for another 24 h. After cooling to room temperature, the mixture was desalted with the spin column (3,000 molecular weight cut off (MWCO)). […] Sensograms were recorded during flow of the analyte (the ActRIIBecd-associated polypeptides (i.e., domains) as previously described) first through flow cell 1 (control) then through flow cell 2 (biotinylated ActRIIBecd). […] The sensograms obtained at 1.11, 3.33, 10, 30, and 90 nM analyte were evaluated for equilibrium binding, association rate, and dissociation rate by using the programs supplied with the instrument (BIA evaluation 2.1; Software Handbook. 1995; Pharmacia Biosensor AB).

[2] = molecular target: T1, extracellular domain of activin …; experiment: BIAcore SPR as Example 5 (method not restated); SD ±3.09 nM
Method: as §1

[3] = molecular target: T1, extracellular domain of activin …; experiment: Mean KD column of Table 5; method not restated (BIAcore as Example 5); species also listed in Table 4
Procedure, shortened: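 Equilibrium binding plus on- and off-rates came from reference-subtracted sensograms of five analyte concentrations (1.11, 3.33, 10, 30, 90 nM). The receptor domain, amine-linked to biotin, sat on a streptavidin chip at a density of 50-250 RU. Flow was 10 μl/min at 25° C.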

[4] = molecular target: T1, extracellular domain of activin …; experiment: BIAcore SPR as Example 5 (method not restated); SD ±1.62 nM
[5] = molecular target: T1, extracellular domain of activin …; experiment: BIAcore SPR as Example 5 (method not restated); SD ±1.79 nM
Method: as §1

[6] = molecular target: T1, extracellular domain of activin …; experiment: BIAcore SPR as Example 5 (method not restated); SD ±2.62 nM
Method: as §1

[7] = molecular target: T1, extracellular domain of activin …; experiment: BIAcore SPR as Example 5 (method not restated); SD ±2.88 nM
Method: as §1

[8] = molecular target: T1, extracellular domain of activin …; experiment: Mean KD column of Table 5; differs from Table 4 (22.31)
Method: as §1

[9] = molecular target: T1, extracellular domain of activin …; experiment: BIAcore SPR as Example 5 (method not restated); SD ±1.99 nM
Method: as §1

[10] = molecular target: T1, extracellular domain of activin …; experiment: BIAcore SPR as Example 5 (method not restated); SD ±2.31 nM
Method: as §1

[11] = molecular target: T1, extracellular domain of activin …; experiment: BIAcore SPR as Example 5 (method not restated); SD ±3.30 nM
Method: as §1

[12] = molecular target: T1, extracellular domain of activin …; experiment: BIAcore SPR as Example 5 (method not restated); SD ±1.27 nM
Method: as §1

[13] = molecular target: T1, extracellular domain of activin …; experiment: BIAcore SPR as Example 5 (method not restated); SD ±2.09 nM
Method: as §1

[14] = molecular target: T1, extracellular domain of activin …; experiment: BIAcore SPR as Example 5 (method not restated); SD ±3.22 nM
Method: as §1

[15] = molecular target: T1, extracellular domain of activin …; experiment: BIAcore SPR as Example 5 (method not restated); SD ±2.14 nM
Method: as §1

[16] = molecular target: T1, extracellular domain of activin …; experiment: BIAcore SPR as Example 5 (method not restated); SD ±3.01 nM
Method: as §1

[17] = molecular target: T1, extracellular domain of activin …; experiment: BIAcore SPR as Example 5 (method not restated); SD ±2.39 nM
Method: as §1

[18] = molecular target: T1, extracellular domain of activin …; experiment: BIAcore SPR as Example 5 (method not restated); SD ±2.05 nM
Method: as §1

B1: Clone No. 12 domain (ActRIIBecd-associated polypeptide) (peptide)
chain: AQAKHKQYKRLKSSCKRHPLY
Kd [1]: 58.4 nM

B2: SEQ ID NO: 212, cysteine pairs C41-C59^a (designed binder)
chain: NSKIPKACCVPTELSAISMLYLDENEKVVLKNYQDMVVEGCGCRAQAKHKQRKRLKSSCKRHPLY
modifications: disulfide 41-59
Kd [2]: 44.3 nM
Kd [3]: 44.3 nM

B5: SEQ ID NO: 218, cysteine pairs C15-C30^a (designed binder)
chain: AQAKHKQRKRLKSSCKRHPLYNSKIPKACCVPTELSAISMLYLDENEKVVLKNYQDMVVEGCGCR
modifications: disulfide 15-30
Kd [6]: 40.9 nM
Kd [3]: 40.9 nM

B6: SEQ ID NO: 224, cysteine pairs C15-C44^a (designed binder)
chain: GQAKRKGYKRLKSSCKRHPLYVDFKDVGWNDHAVAPPGYHAFYCHGECPFPLADHLNSDNHAIVQTKVNSV
modifications: disulfides C15-C44 (intra)
Kd [7]: 48.9 nM
Kd [3]: 48.9 nM

B7: SEQ ID NO: 224, cysteine pairs C44-C48^a (designed binder)
chain: GQAKRKGYKRLKSSCKRHPLYVDFKDVGWNDHAVAPPGYHAFYCHGECPFPLADHLNSDNHAIVQTKVNSV
modifications: disulfides C44-C48 (intra)
Kd [8]: 21.5 nM
Kd [9]: 22.3 nM

B9: SEQ ID NO: 236, cysteine pairs C41-C59^a (designed binder)
chain: NSKDPKACCVPTELSAPSPLYLDENEKPVLKNYQDMVVHGCGCRGQAKRKGYKRLKSSCKRHPLY
modifications: disulfide 41-59
Kd [11]: 49.5 nM
Kd [3]: 49.5 nM

B12: SEQ ID NO: 248, cysteine pairs C41-C43^a (designed binder)
chain: NSKDPKACCVPTELSAPSPLYLDENEKPVLKNYQDMVVHGCGCRVDFKDVGWNDHAVAPPGYHAFYCHGECPFPLADHLNSDNHAIVQTKVNSV
modifications: disulfides C41-C43 (intra)
Kd [14]: 47.8 nM
Kd [3]: 47.8 nM

B13: SEQ ID NO: 248, cysteine pairs C67-C71^a, C8-C43^a, C9-C41^a (designed binder)
chain: NSKDPKACCVPTELSAPSPLYLDENEKPVLKNYQDMVVHGCGCRVDFKDVGWNDHAVAPPGYHAFYCHGECPFPLADHLNSDNHAIVQTKVNSV
modifications: disulfides C67-C71 (intra), C8-C43 (intra), C9-C41 (intra)
Kd [15]: 20 nM
Kd [3]: 20 nM

B14: SEQ ID NO: 248, cysteine pairs C67-C71^a, C8-C43^b, C9-C41^b (designed binder)
chain: NSKDPKACCVPTELSAPSPLYLDENEKPVLKNYQDMVVHGCGCRVDFKDVGWNDHAVAPPGYHAFYCHGECPFPLADHLNSDNHAIVQTKVNSV
modifications: disulfides C67-C71 (intra), C8-C43 (inter), C9-C41 (inter)
notes: homodimer by intermolecular disulfide
Kd [16]: 19.2 nM
Kd [3]: 19.2 nM

B16: SEQ ID NO: 254, cysteine pairs C23-C58^a (designed binder)
chain: VDFKDVGWNDHAVAPPGYHAFYCHGECPFPLADHLNSDNHAIVQTKVNSVNSKDPKACCVPTELSAPSPLYLDENEKPVLKNYQDMVVHGCGCR
modifications: disulfides C23-C58 (intra)
Kd [18]: 44.4 nM
Kd [3]: 44.4 nM

Other lines, results leading:

Kd [4]: 16.2 nM
Kd [3]: 16.2 nM
B3: SEQ ID NO: 218, cysteine pairs C15-C15^b, C29-C62^a, C30-C64^a (designed binder)
chain: AQAKHKQRKRLKSSCKRHPLYNSKIPKACCVPTELSAISMLYLDENEKVVLKNYQDMVVEGCGCR
modifications: disulfide 29-62, 30-64; also: homodimer via intermolecular C15-C15 disulfide
notes: as for B14

Kd [5]: 18.4 nM
Kd [3]: 18.4 nM
B4: SEQ ID NO: 218, cysteine pairs C15-C15^b, C29-C64^a, C30-C62^a (designed binder)
chain: AQAKHKQRKRLKSSCKRHPLYNSKIPKACCVPTELSAISMLYLDENEKVVLKNYQDMVVEGCGCR
modifications: disulfide 29-64, 30-62; also: homodimer via intermolecular C15-C15 disulfide
notes: as for B14

Kd [10]: 17.9 nM
Kd [3]: 17.9 nM
B8: SEQ ID NO: 230, cysteine pairs C23-C27^a (designed binder)
chain: VDFKDVGWNDHAVAPPGYHAFYCHGECPFPLADHLNSDNHAIVQTKVNSVGQAKRKGYKRLKSSCKRHPLY
modifications: disulfides C23-C27 (intra)

Kd [12]: 17.1 nM
Kd [3]: 17.1 nM
B10: SEQ ID NO: 236, cysteine pairs C59-C59^b, C8-C43^a, C9-C41^a (designed binder)
chain: NSKDPKACCVPTELSAPSPLYLDENEKPVLKNYQDMVVHGCGCRGQAKRKGYKRLKSSCKRHPLY
modifications: disulfide 9-41, 8-43; also: homodimer via intermolecular C59-C59 disulfide
notes: as for B14

Kd [13]: 17.8 nM
Kd [3]: 17.8 nM
B11: SEQ ID NO: 242, cysteine pairs C15-C15^b, C29-C62^a, C30-C64^a (designed binder)
chain: GQAKRKGYKRLKSSCKRHPLYNSKDPKACCVPTELSAPSPLYLDENEKPVLKNYQDMVVHGCGCR
modifications: disulfide 29-62, 30-64; also: homodimer via intermolecular C15-C15 disulfide
notes: as for B14

Kd [17]: 19.1 nM
Kd [3]: 19.1 nM
B15: SEQ ID NO: 254, cysteine pairs C23-C27^a, C58-C93^a, C59-C91^a (designed binder)
chain: VDFKDVGWNDHAVAPPGYHAFYCHGECPFPLADHLNSDNHAIVQTKVNSVNSKDPKACCVPTELSAPSPLYLDENEKPVLKNYQDMVVHGCGCR
modifications: disulfides C23-C27 (intra), C58-C93 (intra), C59-C91 (intra)
